From PMC5435892 (Genes & Development, 2017) come the findings set out here.

Series [1] addresses T1, Ulp2^825–844–Tof2^384–400 fusion (S. cerevisiae, UniProt P40537 825-844; Q02208 384-400).
T1 chain (looked up): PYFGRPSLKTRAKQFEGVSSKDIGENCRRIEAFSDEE
Briefly: co-expression in E. coli and co-purification.

The next series concerns the target T2, His6-Csm1 (full-length) (S. cerevisiae, UniProt P25651 1-190).
T2 sequence (looked up): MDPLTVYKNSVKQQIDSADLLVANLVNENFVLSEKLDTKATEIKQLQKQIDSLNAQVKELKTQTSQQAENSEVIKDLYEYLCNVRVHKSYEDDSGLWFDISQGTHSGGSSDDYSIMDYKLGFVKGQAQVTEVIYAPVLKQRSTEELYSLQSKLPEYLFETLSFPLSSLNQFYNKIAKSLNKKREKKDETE
In words: pull-down.

The next series deals with T3, His6-Csm1^69–190 (S. cerevisiae, UniProt P25651 69-190).
T3 sequence (looked up): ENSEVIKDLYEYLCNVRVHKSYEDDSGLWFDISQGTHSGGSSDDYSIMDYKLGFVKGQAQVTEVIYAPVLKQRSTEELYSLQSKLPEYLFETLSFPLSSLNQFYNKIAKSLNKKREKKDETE
Briefly: ITC. (In ITC the heat of successive injections is recorded.)

The target of the next series is T4, SUMO-Ulp2^781–873 (S. cerevisiae, UniProt P40537 781-873).
T4 sequence (looked up): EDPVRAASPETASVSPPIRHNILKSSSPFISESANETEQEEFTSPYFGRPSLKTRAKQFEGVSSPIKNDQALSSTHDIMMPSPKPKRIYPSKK
Briefly: SEC-MALS.

The series “crystal structure” deals with the molecule itself. Briefly: crystal structure.

Positions count from the first letter of the chain named. Numbers in names are those of the source.

B1: Csm1^69–190 (untagged, coexpressed) (domain or fragment, S. cerevisiae, UniProt P25651 69-190, looked up)
chain: T3 sequence (looked up)
With B1, the stoichiometry N (commonly the number of molecules, sites or subunits per partner or assembly) in series [1] is 1 Csm1 per fusion chain (2:2).

B2: GST-Ulp2^781–873 F827A (domain or fragment, S. cerevisiae, UniProt P40537 781-873, looked up)
chain: T4 sequence (looked up) with F47A
In the case of B2, the binding result in the series with His6-Csm1 (full-length) is reported as “binds”.

B3: His6-GST-Ulp2^781–873 (domain or fragment, S. cerevisiae, UniProt P40537 781-873, looked up)
chain: T4 sequence (looked up)
With B3, in the series with His6-Csm1^69–190, the Ka was determined as 1.07e+06 M⁻¹, the dH was -8.613 ± 0.0517 kcal/mol and the “stoichiometry N” value worked out at 0.91 ± 0.004.

B4: GST-Ulp2^781–873 F839A (domain or fragment, S. cerevisiae, UniProt P40537 781-873, looked up)
chain: T4 sequence (looked up) with F59A
As to B4, the binding result in the series with His6-Csm1 (full-length) was “binds”.

B5: His6-GST-Ulp2^781–873 F839D (domain or fragment, S. cerevisiae, UniProt P40537 781-873, looked up)
chain: T4 sequence (looked up) with F59D
As to B5, in the series with His6-Csm1^69–190, the Ka amounted to 55800 M⁻¹, the dH is -1.08 ± 0.0584 kcal/mol and the “stoichiometry N” value worked out at 0.46 ± 0.02.

B6: Csm1^69–181 (untagged, coexpressed) (domain or fragment, S. cerevisiae, UniProt P25651 69-181, looked up)
chain: ENSEVIKDLYEYLCNVRVHKSYEDDSGLWFDISQGTHSGGSSDDYSIMDYKLGFVKGQAQVTEVIYAPVLKQRSTEELYSLQSKLPEYLFETLSFPLSSLNQFYNKIAKSLNK
As to B6, the “stoichiometry N” value was 1 Csm1 per Ulp2 (2:2) with SUMO-Ulp2^781–873 and 2 in the series “crystal structure”.
